Reference: the DeepSol protein solubility set

assay: soluble on expression in E. coli; label from the status in PepcDB or PDB records

| Sequence | soluble on expression in E. coli |
| --- | --- |
| MSLGSNKTIIINLNNLEHNLNLIKNKIGEKEIVATLKGDAYGHGLINIFKFLKSKNINYFGLSNIEDAKTLKKIDKNIKILMYIKVDKKEIKNLIKFELVPFVSDFEYLFLIEKECALQKNKIKVHLKIDIGMNRYGIKIDDALEIATYIQNSKFLELEGICSHLPSIENFKTTQKQIEQFLFFLETLKQKNIHPKFVHISNSGHIINYKLNPQFNMVRPGLILYGYCQSLKNKKPALNFKPVLSLFSKVIFIKNVKKGEKISYSGIFQAKEDMKIGIIPIGYFDGIPQNISNDFYFLINNKKCKIRGKVCMNLTIVEIPKDLKVKTGSKVEIVSEKLSIDEMSKFSKRSHYELLCNIGKYEKRKYLDEGHHHITTDPNSSSVDKLAAALEHHHHHH | soluble |
| MNMPLISIIMPVYNAECYLNQGILSCLNQSYQNIELILIDDGSTDKSIEIINNIIDKDKRVKLFFTPTNQGPAAARNIGLEKAQGDYITFLDSDDFIANDKLEKQLNFMLQNHLVMTHGNYAFCDLEGNQIKLVTTSKKIDYLTLLQGNQFKIMTVLVERESIKLLRFPNIKHEDYAFFLDCLKEVKQSILYSHQASSFVRIGKVSVSSNKFKSAIWTFNIYFKREKLGVVKSIYYFILYAYNGFIKYKK | not soluble |
| MSASLRQSELTIRACILYEALGKNPIQLSYYNFCTRVGNGVMGFSDFEFWYDRFSNGNHDLDYDRSVNQVPKSLPEMPKSEKTEISEIGTQVDIVELLNLMKVSQSVAQKRKVVLDSLVVQFYEGESCSRLIFNDRYIIKYEKKDQGCTVSYSDNRASSDSRKKEINVTDEDYVELCIKDLKLLMENRMVHLKTFRFAIIAVATKEFREKCMKRVEEALKTAKSLTSRTVETTGGYLLELAQLMAIFPAKNVEEIRFTGDGTIGSEQLVSLEQWKNARKFDGMRDLNVPIEHFLHFETFIVYLSVFTEDDAVKLRDMIDRSAHFCYARLHFKSMNIRTLMGVFDVYNTEHNIVYQTPDQRYFNVRFYSNELQITKSAILNFQIE | not soluble |
| SPYIPLMEFSCSHSHLVCLPAEWRTSCMPSSKMKEMSSLFPEDWYQFVLRQLECYHSEEKASNVLEEIAKDKVLKDFYVHTVMTCYFSLFGIDNMAPSPGHILRVYGGVLPWSVALDWLTEKPELFQLALKAFRYTLKLMIDKASLGPIEDFRELIKYLEEYERDWYIGLVSDEKWKEAILQEKPYLFSLGYDSNMGIYTGRVLSLQELLIQVGKLNPEAVRGQWANLSWELLYATNDDEERYSIQAHPLLLRNLTVQAAEPPLGYPIYSSKPLHIHLY | not soluble |
| VVTSVADENVASRIASWGTGPAPDPRLDYAHAHLKGRRGRSPARPNAPIGARSFAVGRKICRVERFTLLEHGFVGHALHRVPCAGLVALVMSACSLAVCREVGNYAQRRVGRFAFFEQTFVRHALTPRCSRTDSKTSYTQLNRICKFPPHWV | not soluble |
| MGSDKIHHHHHHMLNLTPSAISQSIQKLRVIFPDPLFIRKGQGVTPTAFAMHLHEYISQGLESILGALDIEGSYDKQRTITIATTPSVGALVLPVIYRAIKTHYPQLLLRNPPISDAENQLSQFQTDLIIDNMFCTNRTVQHHVLFTDNMVLICREGNPLLSLEDDRETIDNAAHVLLLPEEQNFSGLRQRVQEMFPDRQINFTSYNILTIAALVANSDMLAIIPSRFYNLFSRCWPLEKLPFPSLNEEQIDFSIHYNKFSLRDPILHGVIDVIRNAF | not soluble |
| MELKQFKIAVLPLRDKLLSYARKLTDDHSDAEDAVQEVMLKLWNLRPKLDEYHSIEALAMTMTHHTCMDILRGKHPDNLSLDSVQAASPVATPERLLEEKDEFSLMRHIISTLPPLQQTILRMKDVEEYETEEIAEITGCSSEAIRSNLSRARKKVRDIYLQTIQQRKRRNEA | not soluble |
| MENNTNQENSDALENVSFACIRPEILYFGTPVVLISTIDREGKVNLAPISSAWALGYSVVMGIGTESKTMENLRETGECTLNFPEGALWESVERLAPLTGKYPVPQDKADKFRFESNKFGVAGLTPCDSEVVKPPRVLECRLQMEACVKSVRRISEPDVQAGIVEVKVVRVHARNDLIIDGKYIDPKQWKPLIYSFRHYFTLGCDLGKTFRSKI | not soluble |
| PSGFPQNLHVTGLTTSTTELAWDPPVLAERNGRIISYTVVFRDINSQQELQNITTDTRFTLTGLKPDTTYDIKVRAWTSKGSGPLSPSIQSRTMPV | soluble |
| MFIQTEPTPNPATLKFIPGRSVLDSGTLEFTDASQAARSPLAARLFDIDGVSGVFYGTDFVTVTKDKGEWQHLKPAILGAIMEHYMSGTPILADGKSDGEDGDDDEFYADADAETVEIIKDLIETRVRPAVANDGGDITFRGFKDGIVYLNMRGACAGCPSSTATLQHGIQNLLKHFVPEVVEVRPVT | not soluble |
| MGSDKIHHHHHHMKTAEPQTIDDLERWIKSRGITEVECLVPDLSGIPRGKILPARKFLSCLRDRGLRLPESVFTQTVTGEYPEDDPVDIADSDVYLRPDPRTIRVVPWYEEPTAQVINDCFHRDRSEVHCAPRQVLRNILALYEKQGWKPVVAPELEFYLVRINADPDYPLEPPIGRSGRAETGRQAYGIDAVNEFDPLFEDIYDYAEEQNLDLDTLHHESGSAQMEINFLHGDPMELADQVFLFKRTVRQAALRHNVYATFMAKPLAGQPGSAMHLHQSITDAESGRNILVKKNGEDSDLFRWHIGGLQKYLPHCMLMLAPNVNSYRRFLPDQSAPINMHWGHDNRTVSLRVPYADASARRVENRLSGADANPYLAIAASLACGYLGMIEKIEPTAPITGSAYTRAHNLPRHLPDAIERFERARPLHELLNADFVRVYASVKWAEWDAYQHVISSWEREYLLLNV | not soluble |
| MEEMLREIERILEWPRMLKATVISKGFSFDEKYKIELESGASYFIKVCDSSYFERKQEEYEYMQQLDSLHIPMPKLIHFISLTKFNKCVQVFEWIDGLDGEDNLRTLSTQTQYRAGKKAGEVIKKIHLVEKEDKSNSWEMSIWSKYERYLEALKEYEVDFFRLNTVIDFVGNHKDLLKNRPIVFLHDDFHPANIMIDQNEFRAVIDFARFDIGDPIHDFYKVALFTTNISKPFAVGQVHGYCGGEPDLHFWKLYSLYAAMIFPADIVWTNRSTPYLLDDMKERLNGILEDHNDFSSYIPKWYQSSEFNK | not soluble |
| MSILAEPKRKQKISIDPQNLTWKNDDQKLSKKLMEKMGWSEGDGLGRNRQGNADSVKLKANTSGRGLGADKMADYDSTWISHHDDFADLLAALNKNKEQEPEQTEEEKNAAAEKISIELKSKSIRRRIHYQKFTRAKDTSNYSDSHKKGILGYGRLKSDNAEEKIEEKTENSSVKSDSSDSQADSQEKKEGNNTVSTLSVGDYFAAKMAALKAKREAAAANQTEVKMEIKTEVEEEESDEEKARRKAEKKERKRLRREQRDKEETLETVETILEVKQEVKEEIIDEEFDEAERKRLKKEKKRLKRLREQQQPENEGAEGGEADEEEIPRKRKKHTEDEH | not soluble |
| SLQETTAQEQKVGNYALGPEGLKKALAETGSHILVMDLYAKTMIKQPNVNLSNINLGSEGGELLKNIHLNQELSRINANYWLDTAKPQIQKTARNIVNYDEQFQNYYDTLVETVQKKDKAGLKEGINDLITTINTNSKEVTDVIKMLQDFKGKLYQNSTDFKNNVGGPDGKGGLTAILAGQQATIPQLQAEIEQLRATQKKHFDDVLAWSIG | soluble |
| MRLATKDLAEAIRKGQVRKSSFNTEQLRAIEKGESKIPDYTWHHHQDTGRMQLIREGLHHDTGHIGWEAMNKGR | not soluble |
| AMLPHGLIVSCQALPDEPLHSSFIMSKMALAAYEGGAVGIRANTKEDILAIKETVDLPVIGIVKRDYDHSDVFITATSKEVDELIESQCEVIALDATLQQRPKETLDELVSYIRTHAPNVEIMADIATVEEAKNAARLGFDYIGTTLHGYTSYTQGQLLYQNDFQFLKDVLQSVDAKVIAEGNVITPDMYKRVMDLGVHCSVVGGAITRPKEITKRFVQVMED | soluble |
| MARIRARGSIPDINAYTGSNVTLKIHKDPLGPYRRITWLHTKNQKILEYNYNSTKTIFESEFKGRVYLEENNGALHISNVRKEDKGTYYMRVLRETENELKITLEVFDPV | soluble |
| MAARDPEATKARIFEAAVAEFARHGIAGARIDRIAAEARANKQLIYAYYGNKGELFASVLEKKMLDLAISVPVDPDDIEGWIDRLLDYHAAHPELLRLLFWEGMEYGTAELPHEAERQEHYARKVAAVRDGQERGVITDAIPAPDLLFLLVAMANWAVVVPQMKRILVGGGDAGTDGLRDSIKKAARRIVDR | not soluble |
| MSLASEILPDEFLELFKDLKKPPKKLHYKGNLSLLKQDKIAIIGSRRMSVYTKNCVFSLASMLKNAHLCVVSGGALGVDITASMAAMPNTIGIFANGLDQIYPRTNEKIIKQIYENALALSEYEDDYLPKNYDFLLRNRLVIALSKAVVVAQADIKSGSMQSAKLALELNKPLYVLPQRLGESTATNLLLKENKAKLICDFKEFVSEFASIDMNQDEFLEFCKKGVSVDEALKIYGQKVYEYELEGKISIEGLFIRVLAEGHHHHHH | soluble |
| MSLHEKKKENVPEWQHFDAAIFNKAKKEHKLVLLHLGANWCHWCHVMEEQTYTDPFVLELLNKSYIACKEDHDERQDLTSLYAAYGWPATIVFDADGNELLKEAGFISSDRFIALLKKLVKNPTPMPTDSVQIEPAVASDSSTQQALNTLKKKFYSSLDIEGGGFNYAQKYIDFETFEYAFNHSENDSILTKWLYNSVVNSAGLNDNVWGGVFQYSTHSDWNHLHYEKLLSIQARYIKMYCWYYKRFNDADALSHAESAAKYVQRFLDDPKGGFYNSQDADVTPGEKATEYFKLNNADRIKKGIPAIDKNSYTSDNAEMIEACIILSAATGNNTYLEKAVRCFDFIKKNNKTNNAYAHGSNYTNSISLKDNIAIVKSALLLYRATQDAAYKSEALRIIQEVAGTFYSKKGYMISFIGNSPIKGSYNITENIEACRLLNYCSHVFNEPKYKILAQTIFGFLTNENLVKTMSTEPGILSAYEELNTEPLKAVLMIKNGTELKTDFLNSSLSFPAFYFDNTIYTSTTIPSDKYELFDSFDKNFIVACTASYCSSPMFSKDGFEKFIYRRAFSTEGHHHHHH | soluble |
| MDTLGLVESRSIAAGVNLADGMVKVAQVELVRAGTICSGRYFICLGGDRQAVQTAVSHAEQSGSALAGSYVISGVSPQVLAVLKKSVQPGTPGALGVVECRTVSAGIAAADAAVKRSGISLLRLVTGQGINGKSYFVFSGDVASVQEAADAAKTALGRHLIESVVIARPDASVVRALTSGVR | not soluble |
| MALPQDSVNMALFCDFENIALGVRDTKFEKFDIKPVLEKLLLKGSIVVKKAYCDWDRYKTFKAAMHEASFELIEIPHVRQSGKNSADIRLVVDALDLCYTKAHVDTFVIISGDSDFSPLVSKLRENAKRVIGVGVKNSTSDLLVANCDEFIFYDDLAR | not soluble |
| GPGSMQRSTRIVMAPFKSVLRRHKHHPEGLPLYNDMSKQWLCREGERWWLLDARGEQLPRVAAVAAQYITGQHRPDFTPGMITGDHVVIVNIKDVVMVGDQWIRVPITWQTAYPGGKYRIRLTDMYERDPCMLMWWFLKDEVNRHFVRKLKTRIAPLEKAWLYEDSIHPHADKNPRPLCWTDPEVKGWKYRDPQFIRRWKPNEFMH | not soluble |
| MGMAAESQFHVLAVDDSLFDRKLIERLLQKSSCQVTTVDSGSKALEFLGLRQSTDSNDPNAFSKAPVNHQVVEVNLIITDYCMPGMTGYDLLKKVKESSAFRDIPVVIMSSENVPARISRCLEEGAEEFFLKPVRLADLNKLKPHMMKTKLKNQKLEEIETTSKVENGVPTAVADPEIKDSTNIEIEILPLQQDLLLVQQEEQTLSINNKRKSVEEGISTDRARPRFDGIATAV | not soluble |
